Data as given in the DeepSol protein solubility set.

Test: soluble on expression in E. coli; label from the status in PepcDB or PDB records

Row | Sequence | soluble on expression in E. coli
1 | MKILILGGRFGGLQTAYDLRRYLKNKADIKIIEKNRYIYFRPALPHVGIGLERAEDLRIDLAQVLPDRGIGYIQGTVTKIDPERSLVEYSREGSGGYKEKYDFLVIALGAHLASELIAGFDKYGSSVCEADLAENMWKKLRDFKGGNITLGSAKFIQDTKNRPTNTPDRYAPIADSACEGPVFEMSIMLYDYFKARNMLDKVKMTVYSPGEYLSDLSRTSRSTVAAMYKGMNIELVDNFVVKEVTEKEVISEDGRRLPSDISFILPPYTGQKLVKDAGLGDDVGFVLTGTDMKSVKYDNVYAVGDVNALIVPKMAFLAVKTARIVAANIANRLGMSIPVEVYDPKIVCVADSPYGNYAVAVTDSTFYGGNVSEAIPSPANHLKKTLFTRYFLWSKGDLAMDKYLTSWLEHHHHHH | not soluble
2 | MRNPFERMPTVLTADELIDKAFRRAEKAASSFKPRGNKVKKARLREELRVRTVSNVVRDNLRKVLERTPGLSTLPKFYQELVDVLVDRDTFHKAMAGIDWAIRIIRELEERYVERIRYSNDPNEIAELRRQFYGRVASVLRDIDDRLRYLNKAREVLKDLPVVDLEIPTVVIAGHPNVGKSTLLKALTTAKPEIASYPFTTRGINVGQFEDGYFRYQIIDTPGLLDRPISERNEIEKQAILALRYLGNLIIYIFDPSEHCGFPLEEQIHLFEEVHGEFKDLPFLVVINKIDVADEENIKRLEKFVKEKGLNPIKISALKGTGIDLVKEEIIKTLRPLAEKVAREKIERELRRYRSYL | soluble
3 | GQAQTQVKIISQKSDEINEAITRKIDRGSTLLHTETGYLHSRQNMILTVISNRELSKLNQLVMEIDPTAFMIIGKVNEVHGNGFTLPKKHAVKTEK | not soluble
4 | MGSDKIHHHHHHMGDIQYTVRDDLKLFVNSIMVQQSADGNARFRLPLYADGYPGIMFQQSESGFFRFPESKQLSEFFLYGQTLEPISLEVQGTYRFVVFQLYPFASKYLLGIDPKELNDACYDLMQFQYIDMEVYSKQLTAAPDPESLIACMSDGVAALIGLNKPPHNDRIQQAIKQIIETEGRMRISDLSEAVCLSERTLERNFLGEVGLSPKQFAKIIQFQSSLTKLTDANAETLTAIGLDSGFTDQSHFIRVFKQYTGQTPSQYIKNQTR | not soluble
5 | MKCKFCSREAYIKIHYPKMYLCEEHFKEYFERKVSRTIERYKLLTKDERILVAVSGGKDSAVTAYVLKKLGYNIECLHINLGISGYSEKSEEYAKKQCKLIGAPLHIVRIKEILGYGIGEVKTRRPPCSYCGLTKRYIMNKFAYDNGFDAIATGHNLDDEASFLLNNILHWNTEYLAKGGPILPQQGKFIKKVKPLYEVTEREVVAYALAVGLEYIVEECPYARGATTLDMKGVLNELEEKRPGTKFNFVRGYLKKKKLFEPEIKEKEIKECKICRMPSSGDICAFCKFWGLKKEINFKVSSTDEEPFGP | soluble
6 | MKVDSLHNLSYKEEFEGDMKRSTAAYKKVSEDASIGSTYIADISEVGSQISGEPVQRIKIPEHRQILKRSLIKPVIMAGGNGKRLWPLASKDKPKQFKKILSDLTLLQQTLNRNKFLGQPTIITSKKYESITKEQATEIDVEIALITEPLQKNTAVCAIITALSATALGFDIVVLLPSNHHIADDINYLNTINKALHYVNECGICTIFL | not soluble
7 | MAPSSRWDAMGPKNSYRSVHGRIVPELLESSVARVRPLQYVQRQPSQASARSGANPTHRPSAEVRPVIRTGEMTHSSVIPPLAPGVRRVSLGYESSPSGSLPPLFNQESPWRRQDSYSPQNPAVSHKASLNSTILQGPADAGVVGGQSWNRAWEPARGAASWDTWRNKAVVPPRRSGEPMVSMQAAEEIRILAVITIQAGVRGYLARRRIRLWHRGAMVIQATWRGYRVRRNLAHLCRATTTIQSAWRGYSTRRDQARHWQMLHPVTWVELGSRAGVMSDRSWFQDGRARTVSDHRCFQSCQAHACSVCHSLSSRIGSPPSVVMLVGSSPRTCHTCGRTQPTRVVQGMGQGTEGPGAVSWASAYQLAALSPRQPHRQDKAATAIQSAWRGFKIRQQMRQQQMAAKIVQATWRGHHTRSCLKNTEALLGPADPSASSRHMHWPGI | not soluble
8 | AQDMVSPPPPIADEPLTVNTGIYLIECYSLDDKAETFKVNAFLSLSWKDRRLAFDPVRSGVRVKTYEPEAIWIPEIRFVNVENARDADVVDISVSPDGTVQYLERFSARVLSPLDGRRTESDSQTLHIYLIVRSVDTRNIVLAVDLEKVGKNDDVFLTGWDIESFTAVVKPANFALEDRLESKLDYQLRISRQGGHHHHHH | soluble
9 | MMEPTIHLRQAKAGDIPAILEIEQECFQEDSFSREQFVYLICRSKGTFYVVVEQERIIAYVSLLFHAGTRYLRIYSIAVHPDCRGRKLGQLLMERTIETALDCRAVKITLEVKESNTPAIKLYMKNGFIPVGVKPNYYHDGSDAIYMQRHM | not soluble
10 | MSTTPGTPHGVTHSLMEQGWYWADADRSAVSKALSDQPDGSFIVRNASTPGDYTLSVKFAAQVKLLRIVVKDGKCGFNTDSLTHDSVVRLIEFHRNISLNIFNDALDVRLLYPVSVRRNSQNGKPFFKKGQLQQRMILSAKNDHDWRERLEMENLRAVHLAFERGAKLYDSAHQEMERAESLYHALNQSVRDNEIKLGKLNNLLEAETDVVTQIQGSQTTSEMLKGAFANNKTFVEESIRRINTELTSSKDKKKTLSGILDEIAMKRSNSKTRLCKLMELRSAVYDKMEPALCSRMAAMLDAGAEMINSEPTKVTQLLVDMELKWTPAQYLMCGTSKENAANALIHARYRIAQLDKAVGLKREPQDGIFLIRGSSSHGDKLVLSVLHGERVSHCLIEQNEEGWGFEHSNVYLTTISDFVRYYSHFSLETHADAIKTPLRTPAFDAVTSDTSKPLRNGPGQVFTALPISRKYMEKALLTDDPTKPPESPEPRPDSWDSPSPDTPSSSDSRLVHPTTLPKSIPE | not soluble
11 | MLFMVKFRWETEFKETDIGKIPKDWDVKKIKDIGEVAGGSTPSTKIKEYWGGDIPWITPKDLANYEYIYISRGERNITEKAVKECSLRIFPKGTILLTSRAPIGYVAIAKNPLTTNQGFRNIIPKDGVVSEYLYYLFKTKTMSEYLKDISGGSTFPELKGSTLKEVEIPYPSPEEQQKIATVLSYFDDLIENKKKQNEILEKIALELFKNWFIDFEPFKNEEFVYNDELDKEIPKGWEVKRLGDILKVESGSNAPQREIYFENAKIPFVRVKHLVKGVCIESSDFINELALKDYKMKLYNEKSIIFQKSGESLKEARVNIVPFKFTAVNHLAVIDSSMLNEKHYFIYCLLRFLLKEIVYSVKGTTLPYLKISDIENKYIIIPPQPILQKFHSLVQPLFEKIINNQKQIMVLKKIRDALLPKLVFGELRVEEL | soluble
12 | MPPTPEVGLPLWLLAELTYRCPLQCPYCSNPLDFAAQGQELSTEQWFKVMAEAREMGAAQIGFSGGEPLVRQDLAQLIAEARRLGYYTNLITSGIGLTEARIADFKKAGLDHIQISFQASDEQVNNLLAGSKKAFAQKLEMARAVKAHGYPMVLNFVTHRHNIDKIDRIIELCIALEADFVELATCQFYGWAHLNRLGLLPTRAQLERAERITNEYRDKLKAEGNPCKLIFVTPDYYEERPKACMNGWGNLFLTITPDGTALPCH | not soluble
13 | MAHHHHHHMAEAKVVKDLAEVCASGAETYSAWTTAKALVQRRYLSAKAQGTFEDCGKLLASLTRVLQTYLRIDLAQELLSDVLFQVMEHFSAKQAAGATAAVVKDGGAPQSSFDLAAANFLQHMFDTLLSATTRTYTLMGPMPLVVEWNRDADSGGVEAAVAQSKHAAPWAEAVVLEFAVRAADFLSQRPQSADVLSHWAQNLFVSYEQLLALRLALPSSPPSTPQDGKAASAAAPSPSVPVPTLASQLLRMSTFNRASRTGKESSDSTSAATTPLTAAVYWLTHFAREPNAVNHLFAQYVYFDILGRGQQRSSTANTTPGNSGAPAKMLRERVNAALEERCTLTRREAISMARAAVEAYWQAFPLVLQQTSSVSSPQPSSCAGESSKEDANVDPQDVHLYRWTWFLDSLTLTFAYSGSASASIDEDAAVQQRERQKHVCAQLLELYADVTAELPGLKWQELVAAYIGA | soluble
14 | MGSDKIHHHHHHMLTVNNVSLRYGGRKLFEDVNLKFTPGNCYGIIGANGAGKSTFLKILSGEIEPNTGDVSVDSNTRISVLKQDHFQYDEYEVLETVIMGNERLYSIMKEKDALYAKPDFSEEDGIKASTLEGEFAELNGWEAESEAATLLQGLGISTELHSKKMSELIGGEKVKVLLAQALFGNPGILLLDEPTNHLDIKSIAWLEEFLIDFEGTVIVVSHDRHFLNKVCTMIADVDYGKITLYVGNYDFWYKSSTLALEMTKDQNKKKEEKIKELKDFIARFSANASKSKQATSRKKMLDKLNLEDIKPSNRKYPFIGFKPEREPGNDILTVENLSKTIDGEKVLNNVSFIVSKDDKIALVGDNEIAQTTLFKILSGEMEPDSGSYKWGITITNAYFPKDNSEYFNDCDLSLVDWLRQYSEEKSETYIRGFLGRMLFSGEEALKKASVLSGGEKVRCMLAKTMLTNANFLMFDQPTNHLDLESITALNNGLTNYKSNLMFTSHDHEFIQTIANRIIEITNDGIIDRKCTYDEYLEIQ | not soluble
15 | MGHHHHHHSHMTKIIPVASGKGGVGKTSFVANVGYKLSSLGKTVILVDLDLGGSNLHTCLGVKNKGVGIGSFINKKSKSFSDLVCKTSYDKLYLIPGDALYTGTANLPFSIKKKIIESIQKDLIADFIFLDLGSGTSYNTIDFYLASYSGVIVTIPETPSILNAYSFLKNALYRLLYLGFP | not soluble
16 | MKKKMMTVFTIGVMSLSILGGASPSETQKGKTDYTQRSKEQLNNGKIHAVHTEEKAEKLGIETEGKEQITLEKEIHETEVGREAEQLGISIEGKDVGMLSEEIYETKVKQEALKLGISIENTSIVDLITQINAIKIKDEADKLGISTDGKEIEDIAEEIYGKKVREEAGKLDISQKGKEIEELAQEVYEQKVQEEAKKHHIDLYGKDIYQILREINEQKVLQMADELNMDKMNMNIQELAEKIKKDQPEKGKELNFVPMVRTDADAFYSYLTNLEHHHHHH | not soluble
17 | MKAMNKVWVIGDASVDLVPEKQNSYLKCPGGASANVGVCVARLGGECGFIGCLGDDDAGRFLRQVFQDNGVDVTFLRLDADLTSAVLIVNLTADGERSFTYLVHPGADTYVSPQDLPPFRQYEWFYFSSIGLTDRPAREACLEGARRMREAGGYVLFDVNLRSKMWGNTDEIPELIARSAALASICKVSADELCQLSGASHWQDARYYLRDLGCDTTIISLGADGALLITAEGEFHFPAPRVDVVDTTGAGDAFVGGLLFTLSRANCWDHALLAEAISNANACGAMAVTAKGAMTALPFPDQLNTFLSSHSLAQAMTVK | not soluble
18 | MEIGDVSTGYLEDALIEFSGRSKRRRLSFNGAEDKPDNDLDHSQNHWGLSENYSCTSSQFAEKNDYDEKKRVVYPFGVVKPGGREEDITLNDINKRILMPSARPVRHPVGDFACRPCVSADGPGLSGKAVVAFTKIQTLGRGTITIIRTKG | soluble
19 | ARSEKRVPMTRLRKRVAERLLEAKNSTAMLTTFNEVNMKPIMDLRKQYGEAFEKRHGIRLGFMSFYVKAVVEALKRYPEVNASIDGDDVVYHNYFDVSMAVSTPRGLVTPVLRDVDTLGMADIEKKIKELAVKGRDGKLTVEDLTGGNFTITNGGVFGSLMSTPIINPPQSAILGMHAIKDRPMAVNGQVEILPMMYLALSYDHRLIDGRESVGFLVTIKELLEDPTRLLLDV | soluble
20 | MFFLQMSGFPGSGKSTVSKYIAKLTGAVIIDHDVLKSALLKSLKVKGIESTIVGGLAYDAEWVLIDSYLEQGHSVILDSPCLYEGMVEKGIELSNKHGVKYKYIECYLNDMEEINRRLQTRKRMISQIEKVESEVGFKKWLNGSKRPSNNEYLIVDSSKPIEQYVEKMMDYMTK | not soluble
21 | MKIIDEHTFEGKGYHPFLITDRWQVAYLNYAEAESLEQIEKLDIHHQTDEVFILLQGKAALIGASVTDQNITYDVVNMQPGIVYNIRREVWHKIAMQPGSQVLIIENNDTHLNDFEFFELTESQKSQLRECVTKIVSLTEN | not soluble
